According to publication PMC3988563:
Each block holds one substance with its values, some of them ahead of it.

How the values were obtained:
[1] = molecular target: Ribosome termination complex (70S ribosomes, fMet-STOP mRNA and fMet-tRNA^fMet) (E. coli); assay: other fluorescence titration; 1 nM fluorescein-labeled A220C RF1 titrated with ribosome complexes (0-52 nM) in 1X 219-HEPES buffer; excitation 491 nm, emission 515 nm; quadratic fit
[2] = molecular target: Ribosome termination complex formed with wild-type RF1 (E. coli) (UniProt P0A7I0); assay: quick spin gel-filtration assay (Sephadex G-100) with SYPRO Ruby staining; RF3 preincubated with 2 mM GDPNP, mixed with release complexes (10 nM to 2 uM, threefold excess RF1), 10 min 37 C, Buffer 219 HEPES pH 7.6; quadratic fit; KD with wild-type RF1 complexes is called apparent (K_D,app)
[3] = molecular target: Ribosome termination complex formed with GAQ-RF1 (E. coli) (UniProt P0A7I0); assay: as above
[4] = molecular target: Ribosome termination complex formed with wild-type RF1 (E. coli) (UniProt P0A7I0); assay: quick spin gel-filtration assay (Sephadex G-100) with SYPRO Ruby staining; as a8, no nucleotide added to RF3 (copurified with GDP 1:1; 'apo' assay, no free GDP or GTP)
[5] = molecular target: Ribosome termination complex formed with wild-type RF1 (E. coli) (UniProt P0A7I0); assay: quick spin gel-filtration assay (Sephadex G-100) with SYPRO Ruby staining; as a8, RF3 preincubated with 2 mM GDP
[6] = molecular target: Ribosome termination complex formed with GAQ-RF1 (E. coli) (UniProt P0A7I0); assay: as above
[7] = molecular target: Ribosome termination complex (70S ribosomes, fMet-STOP mRNA and fMet-tRNA^fMet) (E. coli); assay: stopped-flow fluorescence; as a12, with RF3 preincubated with 1 mM GTP in the chase mixture
[8] = molecular target: Ribosome termination complex (70S ribosomes, fMet-STOP mRNA and fMet-tRNA^fMet) (E. coli); assay: stopped-flow fluorescence; Fl-RF1 preincubated with ribosome complex, chased with excess unlabeled RF1, no RF3; Buffer 219 Tris pH 7.6, 26 C; double exponential fit, faster phase
[9] = molecular target: Ribosome termination complex (70S ribosomes, fMet-STOP mRNA and fMet-tRNA^fMet) (E. coli); assay: stopped-flow fluorescence; with RF3 preincubated with 1 mM GDP in the chase mixture

Chain of Ribosome termination complex formed with wild-type RF1 (E. coli) (P0A7I0 whole entry, looked up, one chain of several): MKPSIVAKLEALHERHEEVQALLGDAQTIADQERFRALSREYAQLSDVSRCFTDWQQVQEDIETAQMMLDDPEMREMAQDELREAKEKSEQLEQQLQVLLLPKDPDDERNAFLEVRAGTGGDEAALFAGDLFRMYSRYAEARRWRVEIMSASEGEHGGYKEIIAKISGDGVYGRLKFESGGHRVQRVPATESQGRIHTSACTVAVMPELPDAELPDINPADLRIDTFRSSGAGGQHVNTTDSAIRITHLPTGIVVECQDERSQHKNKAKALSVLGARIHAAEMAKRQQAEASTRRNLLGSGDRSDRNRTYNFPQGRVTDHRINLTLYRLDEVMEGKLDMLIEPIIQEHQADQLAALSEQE
Chain of His-tagged RF3 (class 2 release factor) (P0A7I4 whole entry): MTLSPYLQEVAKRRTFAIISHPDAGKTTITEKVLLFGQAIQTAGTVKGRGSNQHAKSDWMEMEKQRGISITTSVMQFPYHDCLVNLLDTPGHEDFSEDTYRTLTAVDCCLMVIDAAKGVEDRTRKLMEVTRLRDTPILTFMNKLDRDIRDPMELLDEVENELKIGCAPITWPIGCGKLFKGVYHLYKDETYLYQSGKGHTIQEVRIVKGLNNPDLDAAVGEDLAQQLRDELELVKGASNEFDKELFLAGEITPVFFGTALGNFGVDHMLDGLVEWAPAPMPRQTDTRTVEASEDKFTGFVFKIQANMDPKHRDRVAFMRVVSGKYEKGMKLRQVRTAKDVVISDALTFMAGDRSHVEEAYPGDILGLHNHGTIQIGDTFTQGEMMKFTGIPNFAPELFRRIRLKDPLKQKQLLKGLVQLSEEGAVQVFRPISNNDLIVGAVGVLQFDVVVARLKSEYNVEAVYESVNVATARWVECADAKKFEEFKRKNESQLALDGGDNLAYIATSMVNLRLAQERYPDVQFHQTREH
Chain of Ribosome termination complex formed with GAQ-RF1 (E. coli) (P0A7I0 whole entry, looked up, one chain of several): as the sequence (P0A7I0 whole entry, looked up, one chain of several) above

Kd [1]: 0.0025 µM
Substance: Fluorescein-labeled A220C RF1 (from UniProt P0A7I0 1-360) (natural protein)

Kd [2]: 0.05 µM
Kd [3]: 0.01 µM
Kd [4]: 0.036 µM
Kd [5]: 0.43 µM
Kd [6]: 1 µM
Substance: His-tagged RF3 (class 2 release factor) (from UniProt P0A7I4 1-529) (natural protein)

koff in the presence of RF3:GTP [7]: 0.14 s⁻¹
koff [8]: 0.09 s⁻¹
Substance: Fluorescein-labeled GAQ-RF1 (single-cysteine L82C or A220C) (from UniProt P0A7I0 1-360) (natural protein)

koff in the presence of RF3:GDP [9]: 0.3 s⁻¹
koff in the presence of RF3:GTP [7]: 2.9 s⁻¹
koff [8]: 0.005 s⁻¹
Substance: Fluorescein-labeled single-cysteine RF1 (either L82C or A220C) (from UniProt P0A7I0 1-360) (natural protein)
